This is an account of results in the RNAGym collection of RNA variant scans (doi:10.1093/molbev/msab373).

B1: Azoarcus group I ribozyme (parent)
chain: GUGCCUUGCGCCGGGAAACCACGCAAGGGAUGGUGUCAAAUUCGGCGAAACCUAAGCGCCCGCCCGGGCGUAUGGCAACGCCGAGCCAAGCUUCGGCGCCUGCGCCGAUGAAGGUGUAGAGACUAGACGGCACCCACCUAAGGCAAACGCUAUGGUGAAGGCAUAGUCCAGGGAGUGGCGAAAGUCACACAAACCGG

Variants of B1 are the subject of this data set. Briefly: reverse-splicing fitness (ratio to wild type); higher = more active; in vitro selection; Mg2+ level not given. The method in brief:
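An in vitro group I ribozyme library with randomized positions was T7-transcribed and gel-purified. In triplicate, 10 pmol RNA in EPPS pH 7.5 was reacted with 50 pmoles of a 30-nt RNA substrate for 1 h at 37 °C across several added MgCl2 levels (1–48 mM), then stopped with EDTA. Products were reverse transcribed from a substrate-complementary primer, PCR-amplified and sequenced (HiSeq 4000). Fitness is a variant's read proportion after selection over that before, normalised to wild type.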
In the case of C82A A120G A145U C150U C169U U176A, the reverse-splicing fitness came to 0.0201. Turning to C82U A111C A120U A145G C150U C169A, the reverse-splicing fitness was found to be 0.00649.

With C82G A111G A120G A145G C150A C169G U176A, the reverse-splicing fitness came to 0.0177.

In the case of A111G A120C C150A U176C, the reverse-splicing fitness was found to be 0.0799. For the variant C82U A111U C150G C169U U176A, the reverse-splicing fitness was 0.00687. Take A111C A120U A145G C150U C169U U176G: the reverse-splicing fitness came out at 0.00321. On to C82A A111U A120U A145C C150G C169G U176A, for which the reverse-splicing fitness turned out to be 0.00351.

On to C82G A111G A120C A145C C150U U176C, for which the reverse-splicing fitness was found to be 0.0167. Under C82G A111G A120U A145U C169A U176A stands 0.00206; under C82A A111G A120U A145C, 0.027; under C82U A111C A120U A145U C150A C169A, 0.00298. Under C82A A111U A120U A145U C150G U176G stands 0.00272; under C82A A111C C169A U176G, 0.00874; under C82G A111U A120C A145G C169U U176G, 0.00528. On to C82A A120U A145G C150G C169A U176A, for which the reverse-splicing fitness worked out at 0.0135. The value for C82U A111C A120G A145C U176A was 0.0119.

For the variant A111G A120C A145G C150G C169G U176A, the reverse-splicing fitness worked out at 0.00741. For the variant C82G A120U C150U C169A, the reverse-splicing fitness was determined as 0.00461.

Regarding C82U A111G A120G A145C C150G C169G U176C, the reverse-splicing fitness amounted to 0.00692.

Turning to A111G A120C C150U C169G U176G, the reverse-splicing fitness was determined as 0.00459. The value for C82A A111C A120U C150U C169A U176C was 0.00323; that for C82A A111G A120C A145C C150G was 0.00968; that for C82A A111C C150A C169G U176C was 0.0222.

On to C82A A111C A120G A145C C150G C169G, for which the reverse-splicing fitness was found to be 0.00683. A111U A120G A145U C150G C169U: the reverse-splicing fitness came out at 0.0212. Under A111G A120G A145C C150U U176C stands 0.038; under C82U A111G A145G C150U C169G U176G, 0.00547; under C82U A111G A120C A145C C150U U176C, 0.0114. On to C82A A111C A145C C150A U176G, for which the reverse-splicing fitness is 0.00856. C82A A111G A120C A145C C150G C169U: the reverse-splicing fitness was 0.009.

For the variant C82U A111G A120U C150U U176A, the reverse-splicing fitness was 0.00678. Under C82U A111C A120G C150G U176G stands 0.00294; under C82G A111U A120U C150A C169U, 0.00448. A111U A145U C150G C169A U176G: the reverse-splicing fitness is 0.00591. Under C82U A111G A120G C150G C169A stands 0.00895. Under A111C A120C A145U C150G C169U U176C stands 0.0173. Regarding C82U A120U A145U C150U C169A, the reverse-splicing fitness turned out to be 0.0024. The value for C82A C150A was 0.0666; that for C82G A111U A120C C150A U176G was 0.0115. Under C82U A120C A145U C150A stands 0.021; under C82U A111U A120G C150A, 0.00947; under A120G A145G U176C, 0.246. For the variant C82A A145G C150G C169G U176G, the reverse-splicing fitness was 0.00659. The value for C82A A111C A120G A145U C150A C169U was 0.00736; that for C82G A111G A120C A145U C150A C169U U176G was 0.00626. For the variant C82U A111G A120C C150G C169A, the reverse-splicing fitness worked out at 0.0083.

For the variant A111G A120U A145G C169A U176A, the reverse-splicing fitness is 0.00347. Under C82U A111U A145C C150U C169G stands 0.00801; under C82U A111C A120G C150G C169G U176G, 0.00455; under A111C A120U A145U C150U C169A U176C, 0.00252. Turning to C82A A145U C150U C169A U176G, the reverse-splicing fitness is 0.00602. In the case of C82U A120U A145U C150G U176A, the reverse-splicing fitness stood at 0.00548. On to C82U A111G C169A, for which the reverse-splicing fitness stood at 0.0072. Under C82G A111G A120C C150A C169A stands 0.0106; under C82G A111G A120U A145U C150U U176A, 0.0117; under A120G A145U C150A U176G, 0.00673. Under C82A A111U A120C A145U C150U C169U U176G stands 0.00816.

Turning to C82U A111U A120U C169G U176G, the reverse-splicing fitness was determined as 0.00193. On to A111U A120U A145U C150A C169U, for which the reverse-splicing fitness was found to be 0.00692. C82U A111C C150A C169U U176G: the reverse-splicing fitness came to 0.00777. The value for A111G A120U A145U C169A U176G was 0.00131. For C82A A111U A120G A145C C150G U176A, the reverse-splicing fitness is 0.00504. Regarding C82U A120G C169A, the reverse-splicing fitness was 0.0184. Under C82G A120C A145U C150A C169G U176C stands 0.0161; under C82G A145U C169A U176C, 0.00844; under C82U A111C A120C A145C C169A U176G, 0.00387. In the case of A111G A145G U176C, the reverse-splicing fitness is 0.779.

For C82U A120C A145C C150U C169A, the reverse-splicing fitness was 0.00607. C82G A111U A120C A145U C150U C169G U176A: the reverse-splicing fitness came to 0.016. Under C82G A111C A120C A145C C150G C169A U176G stands 0.00733; under A111G A145U C150G U176C, 0.226.

In the case of C82G A111G A145C C150G C169G U176G, the reverse-splicing fitness was found to be 0.0057. Under A111U A145G C169U U176A stands 0.0265.

As for C82U A120G C169A U176G, the reverse-splicing fitness is 0.00354. Under C82A A111G A120G A145U U176A stands 0.0131; under C82U A111C A120G A145C C150U U176C, 0.00988.

Regarding A111U A120G A145G C150U, the reverse-splicing fitness was found to be 0.133.

Consider C82A A111C C150U U176C, for which the reverse-splicing fitness was 0.0554. C82G A111U A145U C150G C169U U176A: the reverse-splicing fitness is 0.00836. In the case of C82U A111C A120C A145U C150G U176C, the reverse-splicing fitness came out at 0.00923. Regarding C82A A111C A120G A145C C150G U176G, the reverse-splicing fitness came to 0.00311.

Turning to C82G A111U A120C A145U C169G U176G, the reverse-splicing fitness amounted to 0.00535. As to C82A A120C A145C C150A C169U U176A, the reverse-splicing fitness is 0.0144.
